B1: library; numbered along this chain (parent)
chain: MRKPRAAVGSGHRKQAASQEGRQKHAKNNSQAKPSACDGLARQPEEVVLQASVSSYHLFRDVAEVTAFRGSLLSWYDQEKRDLPWRRRAEDEMDLDRRAYAVWVSEVMLQQTQVATVINYYTGWMQKWPTLQDLASASLEEVNQLWAGLGYYSRGRRLQEGARKVVEELGGHMPRTAETLQQLLPGVGRYTAGAIASIAFGQATGVVDGNVARVLCRVRAIGADPSSTLVSQQLWGLAQQLVDPARPGDFNQAAMELGATVCTPQRPLCSQCPVESLCRARQRVEQEQLLASGSLSGSPDVEECAPNTGQCHLCLPPSEPWDQTLGVVNFPRKASRKPPREESSATCVLEQPGALGAQILLVQRPNSGLLAGLWEFPSVTWEPSEQLQRKALLQELQRWAGPLPATHLRHLGEVVHTFSHIKLTYQVYGLALEGQTPVTTVPPGARWLTQEEFHTAAVSTAMKKVFRVYQGQQPGTCMGSKRSQVSSPCSRKKPRMGQQVLDNFFRSHISTDAHSLNSAAQ

Variants of: B1
Assay: 8OG:A repair function score (normalized; synonymous = 0, nonsense = -1) (normalized log-likelihood score); higher = more repair activity (WT-like)
Settings: with 8OG:A DNA repair reporter (GFP) in HEK-293 MUTYH KO cells
Description: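 Saturation mutagenesis (NNN codon scan) of the MUTYH cDNA (521-aa nuclear isoform NM_001048174.1 / NP_001041639), stably expressed under doxycycline induction in HEK-293 MUTYH knockout cells. Cells were co-transfected with an 8OG:A-bearing GFP repair reporter plus mCherry and sorted 72 h later into GFP+ and GFP− bins, three replicates per tile. The Rosace log2 enrichment (GFP+ vs GFP−) was converted per tile to a normalized function score with synonymous variants centered at 0 and nonsense variants (codons 1-471) at -1; low-abundance variants were removed.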

Row | Variant | 8OG:A repair function score
1 | MRKPRAAVGSGHRKQAASQEGRQKHAKNNSQAKPSACDGLARQPEEVVLQASVSSYHLFRDVAEVTAFRGSLLSWYDQEKRDLPWRRRAEDEMDLDRTAYAVWVSEVMLQQTQVATVINYYTGWMQKWPTLQDLASASLEEVNQLWAGLGYYSRGRRLQEGARKVVEELGGHMPRTAETLQQLLPGVGRYTAGAIASIAFGQATGVVDGNVARVLCRVRAIGADPSSTLVSQQLWGLAQQLVDPARPGDFNQAAMELGATVCTPQRPLCSQCPVESLCRARQRVEQEQLLASGSLSGSPDVEECAPNTGQCHLCLPPSEPWDQTLGVVNFPRKASRKPPREESSATCVLEQPGALGAQILLVQRPNSGLLAGLWEFPSVTWEPSEQLQRKALLQELQRWAGPLPATHLRHLGEVVHTFSHIKLTYQVYGLALEGQTPVTTVPPGARWLTQEEFHTAAVSTAMKKVFRVYQGQQPGTCMGSKRSQVSSPCSRKKPRMGQQVLDNFFRSHISTDAHSLNSAAQ [R98T] | -0.164
2 | MRKPRAAVGSGHRKQAASQEGRQKHAKNNSQAKPSACDGLARQPEEVVLQASVSSYHLFRDVAEVTAFRGSLLSWYDQEKRDLPWRRRAEDEMDLDRHAYAVWVSEVMLQQTQVATVINYYTGWMQKWPTLQDLASASLEEVNQLWAGLGYYSRGRRLQEGARKVVEELGGHMPRTAETLQQLLPGVGRYTAGAIASIAFGQATGVVDGNVARVLCRVRAIGADPSSTLVSQQLWGLAQQLVDPARPGDFNQAAMELGATVCTPQRPLCSQCPVESLCRARQRVEQEQLLASGSLSGSPDVEECAPNTGQCHLCLPPSEPWDQTLGVVNFPRKASRKPPREESSATCVLEQPGALGAQILLVQRPNSGLLAGLWEFPSVTWEPSEQLQRKALLQELQRWAGPLPATHLRHLGEVVHTFSHIKLTYQVYGLALEGQTPVTTVPPGARWLTQEEFHTAAVSTAMKKVFRVYQGQQPGTCMGSKRSQVSSPCSRKKPRMGQQVLDNFFRSHISTDAHSLNSAAQ [R98H] | -0.232
3 | MRKPRAAVGSGHRKQAASQEGRQKHAKNNSQAKPSACDGLARQPEEVVLQASVSSYHLFRDVAEVTAFRGSLLSWYDQEKRDLPWRRRAEDEMDLDRVAYAVWVSEVMLQQTQVATVINYYTGWMQKWPTLQDLASASLEEVNQLWAGLGYYSRGRRLQEGARKVVEELGGHMPRTAETLQQLLPGVGRYTAGAIASIAFGQATGVVDGNVARVLCRVRAIGADPSSTLVSQQLWGLAQQLVDPARPGDFNQAAMELGATVCTPQRPLCSQCPVESLCRARQRVEQEQLLASGSLSGSPDVEECAPNTGQCHLCLPPSEPWDQTLGVVNFPRKASRKPPREESSATCVLEQPGALGAQILLVQRPNSGLLAGLWEFPSVTWEPSEQLQRKALLQELQRWAGPLPATHLRHLGEVVHTFSHIKLTYQVYGLALEGQTPVTTVPPGARWLTQEEFHTAAVSTAMKKVFRVYQGQQPGTCMGSKRSQVSSPCSRKKPRMGQQVLDNFFRSHISTDAHSLNSAAQ [R98V] | -0.16
4 | MRKPRAAVGSGHRKQAASQEGRQKHAKNNSQAKPSACDGLARQPEEVVLQASVSSYHLFRDVAEVTAFRGSLLSWYDQEKRDLPWRRRAEDEMDLDRPAYAVWVSEVMLQQTQVATVINYYTGWMQKWPTLQDLASASLEEVNQLWAGLGYYSRGRRLQEGARKVVEELGGHMPRTAETLQQLLPGVGRYTAGAIASIAFGQATGVVDGNVARVLCRVRAIGADPSSTLVSQQLWGLAQQLVDPARPGDFNQAAMELGATVCTPQRPLCSQCPVESLCRARQRVEQEQLLASGSLSGSPDVEECAPNTGQCHLCLPPSEPWDQTLGVVNFPRKASRKPPREESSATCVLEQPGALGAQILLVQRPNSGLLAGLWEFPSVTWEPSEQLQRKALLQELQRWAGPLPATHLRHLGEVVHTFSHIKLTYQVYGLALEGQTPVTTVPPGARWLTQEEFHTAAVSTAMKKVFRVYQGQQPGTCMGSKRSQVSSPCSRKKPRMGQQVLDNFFRSHISTDAHSLNSAAQ [R98P] | -0.714
5 | MRKPRAAVGSGHRKQAASQEGRQKHAKNNSQAKPSACDGLARQPEEVVLQASVSSYHLFRDVAEVTAFRGSLLSWYDQEKRDLPWRRRAEDEMDLDRLAYAVWVSEVMLQQTQVATVINYYTGWMQKWPTLQDLASASLEEVNQLWAGLGYYSRGRRLQEGARKVVEELGGHMPRTAETLQQLLPGVGRYTAGAIASIAFGQATGVVDGNVARVLCRVRAIGADPSSTLVSQQLWGLAQQLVDPARPGDFNQAAMELGATVCTPQRPLCSQCPVESLCRARQRVEQEQLLASGSLSGSPDVEECAPNTGQCHLCLPPSEPWDQTLGVVNFPRKASRKPPREESSATCVLEQPGALGAQILLVQRPNSGLLAGLWEFPSVTWEPSEQLQRKALLQELQRWAGPLPATHLRHLGEVVHTFSHIKLTYQVYGLALEGQTPVTTVPPGARWLTQEEFHTAAVSTAMKKVFRVYQGQQPGTCMGSKRSQVSSPCSRKKPRMGQQVLDNFFRSHISTDAHSLNSAAQ [R98L] | -0.107
6 | MRKPRAAVGSGHRKQAASQEGRQKHAKNNSQAKPSACDGLARQPEEVVLQASVSSYHLFRDVAEVTAFRGSLLSWYDQEKRDLPWRRRAEDEMDLDRIAYAVWVSEVMLQQTQVATVINYYTGWMQKWPTLQDLASASLEEVNQLWAGLGYYSRGRRLQEGARKVVEELGGHMPRTAETLQQLLPGVGRYTAGAIASIAFGQATGVVDGNVARVLCRVRAIGADPSSTLVSQQLWGLAQQLVDPARPGDFNQAAMELGATVCTPQRPLCSQCPVESLCRARQRVEQEQLLASGSLSGSPDVEECAPNTGQCHLCLPPSEPWDQTLGVVNFPRKASRKPPREESSATCVLEQPGALGAQILLVQRPNSGLLAGLWEFPSVTWEPSEQLQRKALLQELQRWAGPLPATHLRHLGEVVHTFSHIKLTYQVYGLALEGQTPVTTVPPGARWLTQEEFHTAAVSTAMKKVFRVYQGQQPGTCMGSKRSQVSSPCSRKKPRMGQQVLDNFFRSHISTDAHSLNSAAQ [R98I] | -0.145
7 | MRKPRAAVGSGHRKQAASQEGRQKHAKNNSQAKPSACDGLARQPEEVVLQASVSSYHLFRDVAEVTAFRGSLLSWYDQEKRDLPWRRRAEDEMDLDRQAYAVWVSEVMLQQTQVATVINYYTGWMQKWPTLQDLASASLEEVNQLWAGLGYYSRGRRLQEGARKVVEELGGHMPRTAETLQQLLPGVGRYTAGAIASIAFGQATGVVDGNVARVLCRVRAIGADPSSTLVSQQLWGLAQQLVDPARPGDFNQAAMELGATVCTPQRPLCSQCPVESLCRARQRVEQEQLLASGSLSGSPDVEECAPNTGQCHLCLPPSEPWDQTLGVVNFPRKASRKPPREESSATCVLEQPGALGAQILLVQRPNSGLLAGLWEFPSVTWEPSEQLQRKALLQELQRWAGPLPATHLRHLGEVVHTFSHIKLTYQVYGLALEGQTPVTTVPPGARWLTQEEFHTAAVSTAMKKVFRVYQGQQPGTCMGSKRSQVSSPCSRKKPRMGQQVLDNFFRSHISTDAHSLNSAAQ [R98Q] | -0.236
8 | MRKPRAAVGSGHRKQAASQEGRQKHAKNNSQAKPSACDGLARQPEEVVLQASVSSYHLFRDVAEVTAFRGSLLSWYDQEKRDLPWRRRAEDEMDLDRMAYAVWVSEVMLQQTQVATVINYYTGWMQKWPTLQDLASASLEEVNQLWAGLGYYSRGRRLQEGARKVVEELGGHMPRTAETLQQLLPGVGRYTAGAIASIAFGQATGVVDGNVARVLCRVRAIGADPSSTLVSQQLWGLAQQLVDPARPGDFNQAAMELGATVCTPQRPLCSQCPVESLCRARQRVEQEQLLASGSLSGSPDVEECAPNTGQCHLCLPPSEPWDQTLGVVNFPRKASRKPPREESSATCVLEQPGALGAQILLVQRPNSGLLAGLWEFPSVTWEPSEQLQRKALLQELQRWAGPLPATHLRHLGEVVHTFSHIKLTYQVYGLALEGQTPVTTVPPGARWLTQEEFHTAAVSTAMKKVFRVYQGQQPGTCMGSKRSQVSSPCSRKKPRMGQQVLDNFFRSHISTDAHSLNSAAQ [R98M] | -0.316
9 | MRKPRAAVGSGHRKQAASQEGRQKHAKNNSQAKPSACDGLARQPEEVVLQASVSSYHLFRDVAEVTAFRGSLLSWYDQEKRDLPWRRRAEDEMDLDRNAYAVWVSEVMLQQTQVATVINYYTGWMQKWPTLQDLASASLEEVNQLWAGLGYYSRGRRLQEGARKVVEELGGHMPRTAETLQQLLPGVGRYTAGAIASIAFGQATGVVDGNVARVLCRVRAIGADPSSTLVSQQLWGLAQQLVDPARPGDFNQAAMELGATVCTPQRPLCSQCPVESLCRARQRVEQEQLLASGSLSGSPDVEECAPNTGQCHLCLPPSEPWDQTLGVVNFPRKASRKPPREESSATCVLEQPGALGAQILLVQRPNSGLLAGLWEFPSVTWEPSEQLQRKALLQELQRWAGPLPATHLRHLGEVVHTFSHIKLTYQVYGLALEGQTPVTTVPPGARWLTQEEFHTAAVSTAMKKVFRVYQGQQPGTCMGSKRSQVSSPCSRKKPRMGQQVLDNFFRSHISTDAHSLNSAAQ [R98N] | -0.122
10 | MRKPRAAVGSGHRKQAASQEGRQKHAKNNSQAKPSACDGLARQPEEVVLQASVSSYHLFRDVAEVTAFRGSLLSWYDQEKRDLPWRRRAEDEMDLDRSAYAVWVSEVMLQQTQVATVINYYTGWMQKWPTLQDLASASLEEVNQLWAGLGYYSRGRRLQEGARKVVEELGGHMPRTAETLQQLLPGVGRYTAGAIASIAFGQATGVVDGNVARVLCRVRAIGADPSSTLVSQQLWGLAQQLVDPARPGDFNQAAMELGATVCTPQRPLCSQCPVESLCRARQRVEQEQLLASGSLSGSPDVEECAPNTGQCHLCLPPSEPWDQTLGVVNFPRKASRKPPREESSATCVLEQPGALGAQILLVQRPNSGLLAGLWEFPSVTWEPSEQLQRKALLQELQRWAGPLPATHLRHLGEVVHTFSHIKLTYQVYGLALEGQTPVTTVPPGARWLTQEEFHTAAVSTAMKKVFRVYQGQQPGTCMGSKRSQVSSPCSRKKPRMGQQVLDNFFRSHISTDAHSLNSAAQ [R98S] | -0.2
11 | MRKPRAAVGSGHRKQAASQEGRQKHAKNNSQAKPSACDGLARQPEEVVLQASVSSYHLFRDVAEVTAFRGSLLSWYDQEKRDLPWRRRAEDEMDLDRWAYAVWVSEVMLQQTQVATVINYYTGWMQKWPTLQDLASASLEEVNQLWAGLGYYSRGRRLQEGARKVVEELGGHMPRTAETLQQLLPGVGRYTAGAIASIAFGQATGVVDGNVARVLCRVRAIGADPSSTLVSQQLWGLAQQLVDPARPGDFNQAAMELGATVCTPQRPLCSQCPVESLCRARQRVEQEQLLASGSLSGSPDVEECAPNTGQCHLCLPPSEPWDQTLGVVNFPRKASRKPPREESSATCVLEQPGALGAQILLVQRPNSGLLAGLWEFPSVTWEPSEQLQRKALLQELQRWAGPLPATHLRHLGEVVHTFSHIKLTYQVYGLALEGQTPVTTVPPGARWLTQEEFHTAAVSTAMKKVFRVYQGQQPGTCMGSKRSQVSSPCSRKKPRMGQQVLDNFFRSHISTDAHSLNSAAQ [R98W] | -0.0663
12 | MRKPRAAVGSGHRKQAASQEGRQKHAKNNSQAKPSACDGLARQPEEVVLQASVSSYHLFRDVAEVTAFRGSLLSWYDQEKRDLPWRRRAEDEMDLDRKAYAVWVSEVMLQQTQVATVINYYTGWMQKWPTLQDLASASLEEVNQLWAGLGYYSRGRRLQEGARKVVEELGGHMPRTAETLQQLLPGVGRYTAGAIASIAFGQATGVVDGNVARVLCRVRAIGADPSSTLVSQQLWGLAQQLVDPARPGDFNQAAMELGATVCTPQRPLCSQCPVESLCRARQRVEQEQLLASGSLSGSPDVEECAPNTGQCHLCLPPSEPWDQTLGVVNFPRKASRKPPREESSATCVLEQPGALGAQILLVQRPNSGLLAGLWEFPSVTWEPSEQLQRKALLQELQRWAGPLPATHLRHLGEVVHTFSHIKLTYQVYGLALEGQTPVTTVPPGARWLTQEEFHTAAVSTAMKKVFRVYQGQQPGTCMGSKRSQVSSPCSRKKPRMGQQVLDNFFRSHISTDAHSLNSAAQ [R98K] | -0.0169

From the supplement of paper PMC11908140
